Key:
Test in all cases: SPR (Biacore), PEP07843 immobilized, analyte protein injected
[1] = target: hGM-CSF (human, UniProt P04141 18-144)
Experimental: (§1) In the binding experiment, HBS-EP was used as running buffer and the flow rate was 30 μl/min. […] The analytes, i.e. the panels of 24 or 12 different proteins, were each diluted in HBS-EP or HBS-EP supplemented with 500 mM NaCl to final concentrations of from 0.4 to 250 nM and injected for 5 min. […] The results were analyzed using the BiaEvaluation software.
(§2) The Z-ABD-Z polypeptides were injected over surfaces containing HSA followed by injection of the analyte proteins.

[2] = target: T1, Alpha-2-HS-glycoprotein (AHSG Human HEK) (human, UniProt P02765 19-367, limits assumed)
T1 sequence (looked up): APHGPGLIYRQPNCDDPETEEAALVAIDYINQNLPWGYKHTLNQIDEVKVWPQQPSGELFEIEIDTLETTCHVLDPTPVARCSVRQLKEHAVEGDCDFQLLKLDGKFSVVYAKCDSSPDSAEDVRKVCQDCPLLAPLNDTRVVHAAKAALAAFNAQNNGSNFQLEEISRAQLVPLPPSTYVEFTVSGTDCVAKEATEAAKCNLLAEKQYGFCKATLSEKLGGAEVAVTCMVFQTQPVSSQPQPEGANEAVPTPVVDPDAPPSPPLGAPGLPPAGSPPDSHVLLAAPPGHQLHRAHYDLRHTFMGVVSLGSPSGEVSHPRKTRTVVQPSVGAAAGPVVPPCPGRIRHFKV
Experimental: as §1, §2

[3] = target: T2, Haptoglobin Human (seems to be beta chain) (human, UniProt P00738 162-406, limits assumed)
T2 sequence (looked up): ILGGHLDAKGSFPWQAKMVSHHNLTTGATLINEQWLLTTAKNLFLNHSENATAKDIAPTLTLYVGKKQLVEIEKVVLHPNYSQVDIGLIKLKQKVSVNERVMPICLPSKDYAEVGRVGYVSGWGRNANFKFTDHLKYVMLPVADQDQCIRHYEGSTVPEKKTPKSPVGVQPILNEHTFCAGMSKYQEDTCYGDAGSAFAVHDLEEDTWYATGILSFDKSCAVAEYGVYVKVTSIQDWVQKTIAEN
Experimental: as §1, §2

[4] = target: T3, Human a-2 macroglobulin (human, UniProt P01023 24-1474)
T3 sequence (looked up): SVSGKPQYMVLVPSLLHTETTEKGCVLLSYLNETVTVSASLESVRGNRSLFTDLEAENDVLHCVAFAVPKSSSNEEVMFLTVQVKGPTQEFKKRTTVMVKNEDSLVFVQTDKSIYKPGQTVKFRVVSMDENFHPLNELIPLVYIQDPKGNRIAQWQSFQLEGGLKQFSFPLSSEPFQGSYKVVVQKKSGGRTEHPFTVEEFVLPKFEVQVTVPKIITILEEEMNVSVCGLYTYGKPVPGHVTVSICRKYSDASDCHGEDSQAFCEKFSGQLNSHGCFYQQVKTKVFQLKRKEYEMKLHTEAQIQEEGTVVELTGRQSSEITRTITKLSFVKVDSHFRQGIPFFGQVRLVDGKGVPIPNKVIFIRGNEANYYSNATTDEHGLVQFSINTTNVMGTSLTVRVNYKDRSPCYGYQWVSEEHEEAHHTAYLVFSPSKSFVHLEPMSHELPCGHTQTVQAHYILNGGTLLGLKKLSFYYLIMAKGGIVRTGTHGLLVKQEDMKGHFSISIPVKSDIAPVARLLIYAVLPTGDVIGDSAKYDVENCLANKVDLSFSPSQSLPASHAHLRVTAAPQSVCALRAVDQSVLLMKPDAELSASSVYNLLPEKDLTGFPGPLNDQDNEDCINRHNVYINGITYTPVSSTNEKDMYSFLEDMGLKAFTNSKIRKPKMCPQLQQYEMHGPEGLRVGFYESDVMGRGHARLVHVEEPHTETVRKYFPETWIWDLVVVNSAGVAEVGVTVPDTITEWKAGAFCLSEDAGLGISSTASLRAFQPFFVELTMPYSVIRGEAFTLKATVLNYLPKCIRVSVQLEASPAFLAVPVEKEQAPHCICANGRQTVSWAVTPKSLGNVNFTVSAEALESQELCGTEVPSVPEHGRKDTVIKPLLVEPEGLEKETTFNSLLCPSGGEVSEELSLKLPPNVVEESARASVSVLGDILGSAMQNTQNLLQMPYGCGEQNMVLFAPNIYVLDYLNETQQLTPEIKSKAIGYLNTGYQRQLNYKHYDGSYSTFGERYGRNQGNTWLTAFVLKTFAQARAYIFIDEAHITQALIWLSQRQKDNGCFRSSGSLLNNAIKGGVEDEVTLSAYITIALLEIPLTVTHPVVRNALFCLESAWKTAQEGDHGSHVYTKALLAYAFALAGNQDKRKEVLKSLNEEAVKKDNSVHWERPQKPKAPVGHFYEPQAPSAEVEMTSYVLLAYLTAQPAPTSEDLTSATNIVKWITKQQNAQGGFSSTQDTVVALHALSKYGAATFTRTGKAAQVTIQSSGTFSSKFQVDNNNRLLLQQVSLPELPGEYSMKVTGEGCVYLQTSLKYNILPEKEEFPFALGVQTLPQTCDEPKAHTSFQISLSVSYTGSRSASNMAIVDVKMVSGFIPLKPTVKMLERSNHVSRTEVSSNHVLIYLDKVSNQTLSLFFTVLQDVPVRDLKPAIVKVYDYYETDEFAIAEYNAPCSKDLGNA
Experimental: as §1, §2

[5] = target: T4, AMBP/Alpha1 microglobulin (UniProt P02760 20-203, limits assumed)
T4 sequence (looked up): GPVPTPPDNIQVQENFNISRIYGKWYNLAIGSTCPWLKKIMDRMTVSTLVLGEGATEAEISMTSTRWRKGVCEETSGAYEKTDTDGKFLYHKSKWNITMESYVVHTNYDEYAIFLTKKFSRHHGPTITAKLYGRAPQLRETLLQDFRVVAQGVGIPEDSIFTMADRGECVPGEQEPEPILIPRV
Experimental: as §1, §2

[6] = target: Beta-2-microglobulin/B2M (UniProt P61769 21-119)
Beta-2-microglobulin/B2M, sequence (P61769 21-119 limits assumed): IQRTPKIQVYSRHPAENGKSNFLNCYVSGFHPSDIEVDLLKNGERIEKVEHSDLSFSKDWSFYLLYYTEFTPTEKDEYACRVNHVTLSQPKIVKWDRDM
Experimental: as §1, §2

[7] = target: holo-Transferrin (UniProt P02787 20-698)
holo-Transferrin, sequence (P02787 20-698 limits assumed): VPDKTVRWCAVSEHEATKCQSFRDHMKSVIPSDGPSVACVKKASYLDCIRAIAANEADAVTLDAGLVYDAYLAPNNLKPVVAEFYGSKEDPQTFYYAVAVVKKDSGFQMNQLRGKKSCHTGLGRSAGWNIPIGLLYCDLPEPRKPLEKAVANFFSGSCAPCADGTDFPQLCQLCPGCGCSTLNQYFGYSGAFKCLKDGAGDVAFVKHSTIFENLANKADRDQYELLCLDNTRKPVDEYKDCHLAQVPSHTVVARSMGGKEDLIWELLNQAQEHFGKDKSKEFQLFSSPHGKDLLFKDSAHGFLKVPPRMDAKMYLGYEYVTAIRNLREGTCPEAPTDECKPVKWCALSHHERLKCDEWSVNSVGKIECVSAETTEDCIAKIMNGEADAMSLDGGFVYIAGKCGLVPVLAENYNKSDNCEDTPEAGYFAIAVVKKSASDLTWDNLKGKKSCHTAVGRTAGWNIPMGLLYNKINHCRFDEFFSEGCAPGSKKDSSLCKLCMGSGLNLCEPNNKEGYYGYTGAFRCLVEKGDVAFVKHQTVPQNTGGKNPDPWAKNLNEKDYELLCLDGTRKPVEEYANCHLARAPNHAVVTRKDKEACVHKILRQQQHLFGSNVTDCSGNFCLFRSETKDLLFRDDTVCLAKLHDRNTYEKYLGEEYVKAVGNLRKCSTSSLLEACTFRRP
Experimental: as §1, §2

Measured: binding result

hGM-CSF, sequence (P04141 18-144 limits assumed): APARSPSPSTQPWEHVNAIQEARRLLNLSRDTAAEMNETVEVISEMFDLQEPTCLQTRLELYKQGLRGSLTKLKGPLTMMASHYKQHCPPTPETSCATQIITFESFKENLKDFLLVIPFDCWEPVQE

GSSLAEAKEAANAELDSYGVSDFYKRLIDKAKTVEGVEALKDAILAALP (designed binder) [ABD variant PEP07843]
no binding (tested: 50, 250 nM): all assays above

Reference: patent US20250101074A1 (Affibody, published 2025)
